# Test system: T1, VPF-FRRG(SEQ ID NO: 1)-DOX self-assembled nanoparticles (LT-NPs)
# T1 sequence: FRRG
substance,measurement,value
cathepsin B (Cat-B) protease,"cleavage of LT-NPs after enzymatic reaction with cathepsin B (RP-HPLC at 0, 9 and 24 h; fluorescence spectrophotometry)",the self-assembled nanoparticles (LT-NPs) were cleaved by cathepsin B to release doxorubicin and the photosensitizer
same,morphology by transmission electron microscopy after 24 h reaction with cathepsin B (50 ug/mL),the self-assembled nanoparticles (LT-NPs) were degraded by cathepsin B present in cancer cells and existed in an activated state

# Source: patent US20220370611
